Laboratory results taken from US20230399394A1 (SUNSHINE GUOJIAN PHARMACEUTICAL SHANGHAI, published 2023).
Substitutions are numbered along the chain they refer to.

Tests used:
[1] = biological target: T1, Pep1 (human, N-terminal biotin); assay: ELISA, biotinylated peptide on streptavidin plate
T1 construct: Synthetic 20-mer of human IL-33
T1 peptide: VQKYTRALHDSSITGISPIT
Method: (§1) To determine the binding activity of antibody to each polypeptide fragment, the ELISA plate was pre-coated by biotin-avidin (SA) which was diluted in coating solution (50 mM carbonate coating buffer, pH 9.6) to 2 μg/ml at 4° C. overnight. The plate was washed with PBST for 3 times, and then blocked with 2% BSA prepared in PBS at room temperature for 2 h with 200 μL/well. The plate was washed once with PBST, and 864F3 and 874F7 with final concentrations of 10 μg/mL were added at 100 μL/well, respectively, and the plate was incubated at room temperature for 1 h. The plate was washed with PBST for 3 times, and the goat anti-mouse IgG labeled by HRP was added and placed at 37° C. for 30 min. After washing the plate with PBST for 3 times, the plate was patted on the absorbent paper to remove residual droplets as far as possible. 100 μl TMB developing solution was added to each well, and the plate was placed at room temperature (20±5° C.) for 5 minutes away from light; 50 μl 2M H₂SO₄ terminating solution was added to each well to terminate the substrate reaction. OD values were read at 450 nm on the microplate reader to analyze the binding ability of the antibody to each polypeptide fragment. The experimental results are shown in […]

[2] = biological target: T2, Pep5 (human, N-terminal biotin); assay: ELISA, biotinylated peptide on streptavidin plate
T2 construct: Synthetic 20-mer of human IL-33
T2 peptide: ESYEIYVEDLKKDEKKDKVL
Method: as §1

[3] = biological target: T3, Pep7 (human, N-terminal biotin); assay: ELISA, biotinylated peptide on streptavidin plate
T3 construct: Synthetic 20-mer of human IL-33
T3 peptide: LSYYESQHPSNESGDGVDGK
Method: as §1

[4] = biological target: T4, Pep11 (human, N-terminal biotin); assay: ELISA, biotinylated peptide on streptavidin plate
T4 construct: Synthetic 20-mer of human IL-33
T4 peptide: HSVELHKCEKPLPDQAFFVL
Method: as §1

[5] = biological target: T5, Pep12 (human, N-terminal biotin); assay: ELISA, biotinylated peptide on streptavidin plate
T5 construct: Synthetic 20-mer of human IL-33
T5 peptide: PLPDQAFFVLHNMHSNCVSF
Method: as §1

[6] = biological target: T6, IL-33 mutant protein L50A (human, UniProt O95760 112-270); assay: ELISA as Example 9; row L50A
T6 construct: Prokaryotic expression
T6 chain: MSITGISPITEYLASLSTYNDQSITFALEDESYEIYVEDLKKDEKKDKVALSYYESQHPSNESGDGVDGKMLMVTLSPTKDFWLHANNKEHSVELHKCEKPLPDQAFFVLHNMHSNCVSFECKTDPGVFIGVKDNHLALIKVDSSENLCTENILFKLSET
Method: (§2) SA protein was diluted to 2 μg/mL to coat ELISA plate at 100 μL/well overnight at 4° C. The plate was washed with PBST (PBS containing 0.05% Tween20) for 3 times, and blocked with 2% BSA prepared in PBS at 200 μL/well, at room temperature for 2 h. After the plate was washed twice with PBST, IL-33-his-biotin protein was diluted to 1 μg/mL with 1% BSA prepared in PBST, and was added to ELISA plate at 100 μL/well. The plate was incubated at room temperature for 1 h, and each monoclonal antibody was diluted with 1% BSA prepared in PBST in a 3-fold gradient. The highest concentration of antibody was 10 μg/mL, and the antibody was diluted for 12 gradients. Each diluted monoclonal antibody was added to ELISA wells with 100 μL/well, and the plate was incubated at room temperature for 1 h. Each sample was added to duplicate wells in parallel. The plate was washed with PBST for 3 times, and HRP-anti human IgG Fc secondary antibody prepared with PBST was diluted at an appropriate ratio, and was added to ELISA wells at 100 μL/well. […] Each reaction solution was shaken uniformly and OD450 nm was read on a microplate reader. The data was analyzed and EC₅₀ was calculated.
(§3) Subsequently, according to the experimental method of Example 9, the affinity of the above mutant proteins to 874F7-Hu1 was determined, and IL-33 proteins (WT-1, WT-2, WT-3, and WT-4) without any mutation were set as controls.

[7] = biological target: T7, IL-33 mutant protein S60A (human, UniProt O95760 112-270); assay: ELISA as Example 9; row S60A
T7 construct: Prokaryotic expression; also called 560A
T7 chain: T6 chain with A50L, S60A
Method: as §2, §3

[8] = biological target: T8, IL-33 mutant protein V67A (human, UniProt O95760 112-270); assay: ELISA as Example 9; row V67A
T8 construct: Prokaryotic expression
T8 chain: T6 chain with A50L, V67A
Method: as §2, §3

[9] = biological target: T9, IL-33 mutant protein H58A (human, UniProt O95760 112-270); assay: ELISA as Example 9; row H58A against WT-1
T9 construct: Prokaryotic expression
T9 chain: T6 chain with A50L, H58A
Method: as §2, §3

[10] = biological target: T10, IL-33 mutant protein S63A (human, UniProt O95760 112-270); assay: ELISA as Example 9; row S63A against WT-3
T10 construct: Prokaryotic expression
T10 chain: T6 chain with A50L, S63A
Method: as §2, §3

B1: 874F7 (antibody, V domains shown)
VH: QVQLKESGPGLVAPSHSLSITCNVSGFSLSKYGVHWIRQIPGRGLDWLGVLRAGGSTGYNSALMSRLSISKDSSKSQVFLKMNDLRTDDTAVYFCVRDHYYYSSYGGFVYWGQGTLVTVSA
VL: DIQMTQSPASQSASLGESVTITCLASQTIGAWLAWYRQQPGKSPQLLIYAATRLADGVPSRFSGSGSGTEFSFKINNLQAEDFVSYYCQQLDSSPYTFGGGTRLEM
notes: Murine hybridoma antibody purified on Protein G; also called murine antibody 874F7
Q: Does B1 bind [1]?
A: Result: no binding (tested: 10 µg/mL)

Q: Does B1 bind [2]?
A: Result: no binding (tested: 10 µg/mL)

Q: Does B1 bind [3]?
A: Result: no binding (tested: 10 µg/mL)

Q: Does B1 bind [4]?
A: Result: no binding (tested: 10 µg/mL)

Q: Does B1 bind [5]?
A: Result: no binding (tested: 10 µg/mL)

B2: 874F7-Hu1 (antibody, human IgG4 S228P, kappa)
heavy: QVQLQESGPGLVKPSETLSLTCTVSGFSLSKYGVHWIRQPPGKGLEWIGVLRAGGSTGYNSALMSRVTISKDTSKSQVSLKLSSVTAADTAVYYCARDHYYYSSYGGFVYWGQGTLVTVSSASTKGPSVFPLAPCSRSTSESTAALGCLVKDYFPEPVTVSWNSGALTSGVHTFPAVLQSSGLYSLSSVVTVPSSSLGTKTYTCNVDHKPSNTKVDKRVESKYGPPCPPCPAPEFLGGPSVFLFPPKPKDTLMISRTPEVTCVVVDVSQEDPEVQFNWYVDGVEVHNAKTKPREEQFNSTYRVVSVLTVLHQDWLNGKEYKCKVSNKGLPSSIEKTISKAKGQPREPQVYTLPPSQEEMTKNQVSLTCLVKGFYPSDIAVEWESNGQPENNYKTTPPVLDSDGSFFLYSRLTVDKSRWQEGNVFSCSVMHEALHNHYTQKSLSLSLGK
light: DIQMTQSPSSVSASVGDRVTITCLASQTIGAWLAWYQQKPGKSPKLLIYAATRLADGVPSRFSGSGSGTDFTLTISSLQPEDFATYYCQQLDSSPYTFGQGTKVEIKRTVAAPSVFIFPPSDEQLKSGTASVVCLLNNFYPREAKVQWKVDNALQSGNSQESVTEQDSKDSTYSLSSTLTLSKADYEKHKVYACEVTHQGLSSPVTKSFNRGEC
notes: also called 874F7-Hul; humanized antibody 874F7-Hu1
Q: For B2, which EC50 [6] is on record?
A: The EC50 was 3.34 nM.

Q: And the EC50 [7]?
A: Its EC50 is 5.31 nM.

Q: What about the EC50 [8] of the same binder?
A: The EC50 was 0.11 nM.

Q: And the Affinity decline ratio [9]?
A: Its Affinity decline ratio is 1.9 fold.

Q: What about the Affinity decline ratio [10] of the same binder?
A: The Affinity decline ratio was 0.9 fold.
